Measurements from article PMC12363821 (bioRxiv, 2025).
Where a chain is given by its changes, count along the chain named.

Assays:
Assay in all cases: flow cytometry on cells
[1] = target: T1, CD155 WT (wild-type CD155; poliovirus receptor, PVR) (human), P15151; settings: remark: other sources report otherwise
T1 chain: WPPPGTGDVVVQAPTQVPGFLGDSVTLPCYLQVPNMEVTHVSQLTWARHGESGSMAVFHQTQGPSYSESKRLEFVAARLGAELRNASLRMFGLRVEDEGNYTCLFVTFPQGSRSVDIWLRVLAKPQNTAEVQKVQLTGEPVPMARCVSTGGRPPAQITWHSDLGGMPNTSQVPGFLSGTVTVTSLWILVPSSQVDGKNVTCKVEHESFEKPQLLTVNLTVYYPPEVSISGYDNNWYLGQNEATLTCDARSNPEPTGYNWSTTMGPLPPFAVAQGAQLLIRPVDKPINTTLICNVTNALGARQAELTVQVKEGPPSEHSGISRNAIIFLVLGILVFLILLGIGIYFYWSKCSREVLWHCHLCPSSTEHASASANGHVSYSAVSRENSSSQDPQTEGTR

[2] = target: T2, CD155 Mut (high-affinity mutant variant of CD155, rs1058402, G>A; Ala67Thr) (human, UniProt P15151 21-417, Ala67Thr)
T2 sequence: T1 chain with A47T

[3] = target: T2, CD155 Mut (high-affinity mutant variant …); remark: listed apart in the source

B1: Recombinant human TIGIT-Immunoglobulin chimeric protein, Q495A1 22-141 (Fc fusion)
chain: MMTGTIETTGNISAEKGGSIILQCHLSSTTAQVTQVNWEQQDQLLAICNADLGWHISPSFKDRVAPGPGLGLTLQSLTVNDTGEYFCIYHTYPDGTYTGRIFLEVLESSVAEHGARFQIP
modifications: here or on the partner: Alexa Fluor 594 (Zenon human IgG labeling kit)
- fold binding (AUC) against parental Mel1 hPSC [1]: 4.25 fold

B2: Recombinant human TIGIT-Immunoglobulin chimeric protein (Fc fusion)
chain: B1 chain
modifications: Alexa Fluor 594 (Zenon human IgG labeling kit)
- fold binding (AUC) against the CD155 WT sBC line [2]: 1.37 fold
- fold binding (AUC) against parental Mel1 hPSC [3]: 6.47 fold
- fold binding (AUC) against the CD155 WT hPSC line [3]: 1.52 fold

B3: Recombinant human CD226-Immunoglobulin chimeric protein (Fc fusion)
chain: EEVLWHTSVPFAENMSLECVYPSMGILTQVEWFKIGTQQDSIAIFSPTHGMVIRKPYAERVYFLNSTMASNNMTLFFRNASEDDVGYYSCSLYTYPQGTWQKVIQVVQSDSFEAAVPSNSHIVSEPGKNVTLTCQPQMTWPVQAVRWEKIQPRQIDLLTYCNLVHGRNFTSKFPRQIVSNCSHGRWSVIVIPDVTVSDSGLYRCYLQASAGENETFVMRLTVAEGKTDNQYTLFVA
modifications: Alexa Fluor 594 (Zenon human IgG labeling kit)
- fold binding (AUC) against the CD155 WT sBC line [2]: 1.29 fold
